Assay results taken from article PMC4868709 (2015).

B1: purified I domain of CD147 (domain or fragment)
chain: PRVKAVKSSEHINEGETAMLVCKSESVPPVTDWAWYKITDSEDKALMNGSESRFFVSSSQGRSELHIENLNMEADPGQYRCNGTSSKGSDQAIIT
B2: purified His-tagged Ig-like domains of CD147 (CD147ECP-his) (domain or fragment)
chain: AAGTVFTTVEDLGSKILLTCSLNDSATEVTGHRWLKGGVVLKEDALPGQKTEFKVDSDDQWGEYSCVFLPEPMGTANIQLHGPPRVKAVKSSEHINEGETAMLVCKSESVPPVTDWAWYKITDSEDKALMNGSESRFFVSSSQGRSELHIENLNMEADPGQYRCNGTSSKGSDQAIITLRVRSHLAAL
B3: purified C2 domain of CD147 (domain or fragment)
chain: AAGTVFTTVEDLGSKILLTCSLNDSATEVTGHRWLKGGVVLKEDALPGQKTEFKVDSDDQWGEYSCVFLPEPMGTANIQLHG

molecular target: purified Annexin A2 (UniProt P07355 1-339); experiment: SPR
Sequence (P07355 whole entry): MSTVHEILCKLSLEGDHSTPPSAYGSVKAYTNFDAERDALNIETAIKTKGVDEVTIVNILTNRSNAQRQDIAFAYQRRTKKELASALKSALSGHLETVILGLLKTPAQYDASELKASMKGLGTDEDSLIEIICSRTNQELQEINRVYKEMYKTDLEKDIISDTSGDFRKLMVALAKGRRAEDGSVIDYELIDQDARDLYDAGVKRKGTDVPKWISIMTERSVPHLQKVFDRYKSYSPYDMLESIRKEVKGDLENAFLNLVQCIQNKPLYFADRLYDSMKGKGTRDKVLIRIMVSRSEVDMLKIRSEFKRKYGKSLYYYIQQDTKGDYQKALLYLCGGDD

Row | koff [s⁻¹] | Binder
1 | 0.00307 | B1
2 | 1.14 | B2
3 | 1.14 | B3
